Data from publication PMC11623927, “Synthesis and biological assessment of chalcone and pyrazoline derivatives as novel inhibitor for ELF3-MED23 interaction” (eLife, 2024).
Values belong to the molecule of their own block, whether it stands above or below them. Ends that are not written are not given here.

How the values were obtained:
[1] = biological target: T1, MED23 (mediator of RNA polymerase II transcription subunit 23) (Homo sapiens, UniProt Q9ULK4); assay: cell-free fluorescence polarization displacement of FITC-ELF3_[…]-145 from (His)6-MED23_[…]-582; format: binding
T1 construct: (His)6-MED23_391-582; with ELF3 (FITC-labeled ELF3_129-145 peptide)

[2] = biological target: T2, Cluc-MED23_(391-582) (UniProt Q9ULK4 391-582); assay: split reporter (BiFC, NanoBiT); split firefly luciferase complementation in HEK293 co-transfected with Nluc-ELF3 and Cluc-MED23(391-582); without compound 10; conditions: partners not purified
T2 construct: MED23 residues 391-582; also called MED23_(391-582) fragment fused with Cluc; source: HEK293, transfected, in cells
T2 sequence (looked up): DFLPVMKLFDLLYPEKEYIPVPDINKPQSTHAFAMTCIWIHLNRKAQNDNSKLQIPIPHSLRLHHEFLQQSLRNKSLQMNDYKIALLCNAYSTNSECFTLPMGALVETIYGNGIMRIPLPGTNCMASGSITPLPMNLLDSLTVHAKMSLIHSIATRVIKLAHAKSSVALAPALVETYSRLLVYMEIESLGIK

[3] = biological target: T3, (His)6-MED23_(391-582) protein (UniProt Q9ULK4 391-582); assay: fluorescence polarisation; cell-free displacement; varying concentrations of unlabeled ELF3(137-144) peptide added to 80 nM (His)6-MED23(391-582) and 10 nM FITC-ELF3(129-145); Ki from IC50 by the Cheng-Prusoff equation; n=3; conditions: both partners purified
T3 construct: MED23 (mediator of RNA polymerase II transcription subunit 23), residues 391-582
T3 sequence (looked up): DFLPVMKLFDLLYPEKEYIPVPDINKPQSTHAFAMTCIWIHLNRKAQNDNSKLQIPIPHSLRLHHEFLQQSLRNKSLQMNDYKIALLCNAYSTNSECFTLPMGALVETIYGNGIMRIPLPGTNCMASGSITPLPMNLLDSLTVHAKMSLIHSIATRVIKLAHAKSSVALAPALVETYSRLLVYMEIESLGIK

[4] = biological target: T4, (His)6-MED23_(391-582) protein (UniProt Q9ULK4 391-582); assay: FP; competition with FITC-ELF3(129-145)
T4 chain: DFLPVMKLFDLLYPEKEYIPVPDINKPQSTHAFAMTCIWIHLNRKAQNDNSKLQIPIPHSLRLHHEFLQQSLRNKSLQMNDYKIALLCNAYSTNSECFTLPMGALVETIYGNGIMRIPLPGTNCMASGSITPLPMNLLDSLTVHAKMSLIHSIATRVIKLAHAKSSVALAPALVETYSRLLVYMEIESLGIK

[5] = biological target: T3, (His)6-MED23_(391-582) protein; assay: fluorescence polarisation; cell-free; different concentrations of (His)6-MED23(391-582) with 10 nM FITC-ELF3(129-145) in assay buffer; least-squares non-linear fit; n=3; conditions: both partners purified

Ki [1]: 680 ± 80 nM
Molecule: COc1ccc(/C=C/C(=O)c2cc(OC)c(OC)c(OC)c2)cc1OCC=C(C)C [compound 10, (E)–3-(4-Methoxy-3-((3-methylbut-2-en-1-yl)oxy)phenyl)–1-(3,4,5-trimethoxyphenyl) prop-2-en-1-one]

fold change of bioluminescence vs. control [2]: 32.7 fold
B1: Nluc-ELF3WT (natural protein, UniProt P78545 1-371, looked up)
chain: MAATCEISNIFSNYFSAMYSSEDSTLASVPPAATFGADDLVLTLSNPQMSLEGTEKASWLGEQPQFWSKTQVLDWISYQVEKNKYDASAIDFSRCDMDGATLCNCALEELRLVFGPLGDQLHAQLRDLTSSSSDELSWIIELLEKDGMAFQEALDPGPFDQGSPFAQELLDDGQQASPYHPGSCGAGAPSPGSSDVSTAGTGASRSSHSSDSGGSDVDLDPTDGKLFPSDGFRDCKKGDPKHGKRKRGRPRKLSKEYWDCLEGKKSKHAPRGTHLWEFIRDILIHPELNEGLMKWENRHEGVFKFLRSEAVAQLWGQKKKNSNMTYEKLSRAMRYYYKREILERVDGRRLVYKFGKNSSGWKEEEVLQSRN
notes: ELF3, full-length cDNA, wild type; source: HEK293, transfected, in cells

Ki [3]: 4470 nM
IC50 [4]: 8810 nM
B2: unlabeled ELF3_(137-144) peptide (peptide, UniProt P78545 137-144, looked up)
peptide: SWIIELLE
notes: ELF3 residues 137-144 (S137 to E144), within the TAD domain; Positive control of the FP displacement assay

Kd [5]: 10.2 nM
B3: fluorescein isothiocyanate (FITC)-labeled ELF3_(129-145) peptide (peptide, UniProt P78545 129-145, looked up)
peptide: TSSSSDELSWIIELLEK
modifications: also: FITC label, position not given here
notes: also called ELF3-FITC peptide (17 a.a.)
